From paper PMC5855949
Read-outs that look alike come from different tables or passages of the source.

Legend:
[1] = molecular target: T1, lambda cI repressor, hexa-histidine-tagged (bacteriophage lambda, UniProt P03034 1-237); test: filter binding
[2] = molecular target: T1, lambda cI repressor, …; test: filter binding; remark: listed apart in the source

T1 sequence (P03034 whole entry): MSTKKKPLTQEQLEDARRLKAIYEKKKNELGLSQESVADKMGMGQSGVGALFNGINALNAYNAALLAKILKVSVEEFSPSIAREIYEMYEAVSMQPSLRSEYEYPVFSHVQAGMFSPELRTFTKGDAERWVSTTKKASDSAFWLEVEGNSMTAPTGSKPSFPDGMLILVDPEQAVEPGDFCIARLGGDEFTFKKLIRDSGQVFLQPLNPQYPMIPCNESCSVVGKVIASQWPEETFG

B1: aptamer Tarap (Guu(0/-7)) (structured_RNA)
RNA: GGGAUCGACAGGGCUCCCGUUUGGCUCGGCGAAGAUCGCCUGUACUUUGGAAAGCCGAGUCGU
Kd [1]: 264 ± 24 nM
Kd [2]: 518 ± 96 nM
